Target: T1, antigen 4-1BB (Sino Biological, Cat. No. 10041-H08H) (UniProt Q07011 24-186)
T1 construct: Bought protein used as SPR analyte; also called CD137
Test: SPR (Biacore T200), sample captured on the chip by Fc, 4-1BB as analyte

T1 sequence (Q07011 24-186 limits assumed): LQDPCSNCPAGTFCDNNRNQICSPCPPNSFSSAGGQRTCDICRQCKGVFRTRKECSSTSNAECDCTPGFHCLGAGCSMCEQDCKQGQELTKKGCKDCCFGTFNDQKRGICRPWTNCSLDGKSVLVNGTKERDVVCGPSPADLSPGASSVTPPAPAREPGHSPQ

Kd: 3.22 nM
koff: 0.00159 s⁻¹
kon: 496000 M⁻¹ s⁻¹
B1: Urelumab (antibody, V domains shown)
VH: QVQLQQWGAGLLKPSETLSLTCAVYGGSFSGYYWSWIRQSPEKGLEWIGEINHGGYVTYNPSLESRVTISVDTSKNQFSLKLSSVTAADTAVYYCARDYGPGNYDWYFDLWGRGTLVTVSS
VL: EIVLTQSPATLSLSPGERATLSCRASQSVSSYLAWYQQKPGQAPRLLIYDASNRATGIPARFSGSGSGTDFTLTISSLEPEDFAVYYCQQRSNWPPALTFGGGTKVEIK

— patent EP4737479A1 (Bio-Thera Solutions, Ltd., dated 2026)
